Laboratory results: paper PMC5427286
Where “and” joins values, the source holds several entries; their conditions need not be identical. Equal values may be shown once.

Experiments:
[1] = target: Hsp21 after limited proteolysis with trypsin (NTR degraded) (A. thaliana) (UniProt P31170); experiment: native gel or EMSA; non-denaturing PAGE of purified protein; also of samples withdrawn during 1-30 min of limited trypsin proteolysis
[2] = target: Hsp21^V181A, non-dodecameric mutational variant of Hsp21 (A. thaliana) (UniProt P31170); experiment: SEC-SAXS; online SEC-SAXS, Superdex 200 Increase 10/300, 50 mM HEPES pH 7.5, 100 mM NaCl, 0.1% Tween 20, 0.15 ml/min; retention times 80-84 min; EOM with a pool of dimers and hexamers

Chain of Hsp21 after limited proteolysis with trypsin (NTR degraded) (P31170 44-227): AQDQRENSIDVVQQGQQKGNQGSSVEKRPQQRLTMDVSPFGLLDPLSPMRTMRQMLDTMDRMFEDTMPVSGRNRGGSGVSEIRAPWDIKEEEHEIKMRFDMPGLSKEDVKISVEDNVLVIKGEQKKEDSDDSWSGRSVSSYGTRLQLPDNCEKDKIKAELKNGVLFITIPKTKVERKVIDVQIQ

stoichiometry N [1] | stoichiometry N [2] | Substance
12 | – | Hsp21 after limited proteolysis with trypsin (NTR degraded) (from UniProt P31170 44-227) (domain or fragment)
– | 2 and 6 | Hsp21^V181A, non-dodecameric mutational variant of Hsp21 (from UniProt P31170 44-227) (natural protein)
